Measurements taken from patent US20120316071A1 (published 2012).

What was measured:
[1] = molecular target: T1, rHuman ErbB2/Fc Chimera, CF (R&D Systems Cat#1129-ER) (human, UniProt P04626 23-652); assay: MSD multispot ECL, antigen spotted on plate, Fab 176.3 nM; blank spot 346
T1 construct: Bought from R&D Systems; also called human epidermal growth factor 2 receptor (ErbB2); not shown: Fc of the bought chimera

[2] = molecular target: T2, rHuman EGF R/Fc Chimera, CF (R&D Systems Cat#344-ER) (human, UniProt P00533 25-645); assay: as above
T2 construct: Bought from R&D Systems; also called epidermal growth factor receptor (EGF R); not shown: Fc of the bought chimera

[3] = molecular target: T3, rHuman CD44/Fc Chimera, CF (R&D Systems Cat#3660-CD) (human, UniProt P16070 21-220); assay: as above
T3 construct: Bought from R&D Systems; not shown: Fc of the bought chimera

[4] = molecular target: T4, rHuman Erythropoietin R/Fc Chimera, CF (R&D Systems Cat#963-ER) (human, UniProt P19235 25-250); assay: as above
T4 construct: Bought from R&D Systems; also called EPO R/Fc; Epo R/Fc chimera; not shown: Fc of the bought chimera
T4 sequence (looked up): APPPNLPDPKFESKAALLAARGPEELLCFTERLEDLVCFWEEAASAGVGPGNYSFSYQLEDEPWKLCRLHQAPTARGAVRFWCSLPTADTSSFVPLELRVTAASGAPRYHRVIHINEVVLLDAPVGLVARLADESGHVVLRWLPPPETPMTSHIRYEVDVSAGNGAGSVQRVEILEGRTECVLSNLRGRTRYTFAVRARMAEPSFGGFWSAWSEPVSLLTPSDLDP

[5] = molecular target: T5, Recombinant Human DLL4 (R&D Systems Cat#1506-D4/CF) (human, UniProt Q9NR61 27-524); assay: as above
T5 construct: Bought from R&D Systems; also called rHuman DLL4; delta-like protein 4

[6] = molecular target: T6, rHuman P-Cadherin/Fc Chimera, CF (R&D Systems Cat#861-PC) (human, UniProt P22223 108-654); assay: MSD multispot ECL, antigen spotted on plate, Fab 88.1 nM; blank spot 301
T6 construct: Bought from R&D Systems; not shown: Fc of the bought chimera

[7] = molecular target: T2, rHuman EGF R/Fc Chimera, CF (R&D …); assay: as above
[8] = molecular target: T7, rHuman Notch-1/Fc Chimera, CF (R&D Systems Cat#3647-TK) (human, UniProt P46531 19-526); assay: as above
T7 construct: Bought from R&D Systems; not shown: Fc of the bought chimera

[9] = molecular target: T3, rHuman CD44/Fc Chimera, CF (R&D Systems …); assay: as above
[10] = molecular target: T4, rHuman Erythropoietin R/Fc Chimera, CF …; assay: as above
[11] = molecular target: T8, rHuman IGF-1 sR, (IGF-1 sR), CF (R&D Systems Cat#391-GR) (human, UniProt P08069 31-932); assay: as above
T8 construct: Bought from R&D Systems and called a soluble receptor; also called insulin-like growth factor-1 soluble receptor

[12] = molecular target: T9, rHuman HGF R/c-MET/Fc Chimera, CF (R&D Systems Cat#358-MT/CF) (human, UniProt P08581 25-932); assay: MSD multispot ECL, antigen spotted, Fab 2.3 nM; blank spot 234
T9 construct: Bought reagent; also called HGF R/Fc; hepatocyte growth factor receptor

[13] = molecular target: T10, rHuman CD44/Fc Chimera, CF (R&D Systems Cat#3660-CD) (human, UniProt P16070 21-220); assay: as above
T10 construct: Bought reagent

[14] = molecular target: T11, rHuman Notch-1/Fc Chimera, CF (R&D Systems Cat#3647-TK) (human, UniProt P46531 19-526); assay: as above
T11 construct: Bought reagent

[15] = molecular target: T12, rHuman Erythropoietin R/Fc Chimera, CF (R&D Systems Cat#963-ER) (human, UniProt P19235 25-250); assay: as above
T12 construct: Bought reagent; also called EPO R/Fc; Epo R
T12 sequence (looked up): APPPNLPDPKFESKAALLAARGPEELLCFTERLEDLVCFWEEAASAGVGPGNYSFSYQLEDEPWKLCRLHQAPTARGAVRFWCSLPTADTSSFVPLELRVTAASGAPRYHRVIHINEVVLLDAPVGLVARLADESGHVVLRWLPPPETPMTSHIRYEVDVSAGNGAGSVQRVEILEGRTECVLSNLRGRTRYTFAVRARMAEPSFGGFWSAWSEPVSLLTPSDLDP

[16] = molecular target: T13, Recombinant Human DLL4 (R&D Systems Cat#1506-D4/CF) (human, UniProt Q9NR61 27-524); assay: as above
T13 construct: Bought recombinant protein; also called rHuman DLL4; delta-like protein 4

[17] = molecular target: T14, rHuman EGF R/Fc Chimera, CF (R&D Systems Cat#344-ER) (human, UniProt P00533 25-645); assay: as above
T14 construct: Bought reagent; also called epidermal growth factor receptor

[18] = molecular target: T15, rHuman IGF-1 sR, (IGF-1 sR), CF (R&D Systems Cat#391-GR) (human, UniProt P08069 31-932); assay: as above
T15 construct: Bought soluble receptor; also called insulin-like growth factor-1 soluble receptor

[19] = molecular target: T16, rHuman ErbB2/Fc Chimera, CF (R&D Systems Cat#1129-ER) (human, UniProt P04626 23-652); assay: as above
T16 construct: Bought reagent; also called human epidermal growth factor 2 receptor

T9 sequence (P08581 25-932, change not shown): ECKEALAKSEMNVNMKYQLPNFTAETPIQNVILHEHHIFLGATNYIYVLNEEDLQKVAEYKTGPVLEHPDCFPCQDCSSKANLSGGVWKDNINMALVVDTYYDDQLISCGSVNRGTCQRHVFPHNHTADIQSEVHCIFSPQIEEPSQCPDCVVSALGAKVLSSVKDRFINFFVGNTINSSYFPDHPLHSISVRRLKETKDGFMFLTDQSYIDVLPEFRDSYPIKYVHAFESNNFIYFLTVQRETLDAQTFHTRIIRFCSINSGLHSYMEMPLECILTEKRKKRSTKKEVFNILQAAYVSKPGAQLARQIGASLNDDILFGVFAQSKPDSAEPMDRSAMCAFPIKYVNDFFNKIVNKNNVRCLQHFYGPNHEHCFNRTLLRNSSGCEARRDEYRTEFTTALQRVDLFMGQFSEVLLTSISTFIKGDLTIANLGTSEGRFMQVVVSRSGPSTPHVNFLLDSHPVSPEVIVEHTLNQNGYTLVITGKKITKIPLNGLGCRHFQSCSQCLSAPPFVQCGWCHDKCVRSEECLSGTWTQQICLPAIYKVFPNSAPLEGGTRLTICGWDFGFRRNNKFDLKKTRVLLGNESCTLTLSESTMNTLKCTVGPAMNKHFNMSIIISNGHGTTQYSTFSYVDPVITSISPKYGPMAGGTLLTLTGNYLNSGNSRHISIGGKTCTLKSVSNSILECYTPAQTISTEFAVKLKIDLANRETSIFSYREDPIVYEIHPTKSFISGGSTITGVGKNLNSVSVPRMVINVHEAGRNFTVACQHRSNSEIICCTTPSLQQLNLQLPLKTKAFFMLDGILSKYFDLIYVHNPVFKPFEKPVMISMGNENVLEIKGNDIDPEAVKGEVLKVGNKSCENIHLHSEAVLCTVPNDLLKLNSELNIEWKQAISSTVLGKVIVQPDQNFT

B1: Fab VH1-46_IGHD3-10*01_IGHJ4*01 & B3_IGKJ1*01 (Fab, V domains shown)
VH: QVQLVQSGAEVKKPGASVKVSCKASGYTFTSYYMHWVRQAPGQGLEWMGIINPSGGSTSYAQKFQGRVTMTRDTSTSTVYMELSSLRSEDTAVYYCAREYYYGSGSYYNDYFDYWGQGTLVTVSS
VL: not shown
notes: Tested as a Fab made in E. coli; VH was cloned into Plasmid A (CH1 constant region, His6 and Flag tags); The kappa VL was cloned into Plasmid C (kappa CL)
- ECL signal [1]: 448
- ECL signal [2]: 428
- ECL signal [3]: 376
- ECL signal [4]: 3520
- ECL signal [5]: 460
- ECL signal [6]: 278
- ECL signal [7]: 376
- ECL signal [8]: 440
- ECL signal [9]: 340
- ECL signal [10]: 3370
- ECL signal [11]: 273

B2: Fab VH1-46_IGHD6-6*01_IGHJ1*01 & L6_IGKJ1*01 (Fab, V domains shown)
VH: QVQLVQSGAEVKKPGASVKVSCKASGYTFTSYYMHWVRQAPGQGLEWMGIINPSGGSTSYAQKFQGRVTMTRDTSTSTVYMELSSLRSEDTAVYYCAREEYSSSSAEYFQHWGQGTLVTVSS
VL: not shown
notes: Only variable domains are tied to the molecule; Tested as a Fab made in E. coli: heavy chain from Plasmid A (CH1 constant region, His6 and Flag tags), kappa light chain from Plasmid C (kappa CL); also called parent Hit Fab against DLL4; VH1-46_IGHD6-6*01_IGHJ1*01 & L6_IGKJ1*01 (parental)
- ECL signal [12]: 253 ECL signal
- ECL signal [13]: 317 ECL signal
- ECL signal [14]: 333 ECL signal
- ECL signal [15]: 429 ECL signal
- ECL signal [16]: 3060 ECL signal
- ECL signal [17]: 289 ECL signal
- ECL signal [18]: 231 ECL signal
- ECL signal [19]: 291 ECL signal
